Data on twelve substances can be found in patent US20260062447A1, “COMPOUNDS” (UNIVERSITY OF SOUTHAMPTON, priority 2022, published 2026).

In experiment [1] the target is HIF-1α PAS-B domain (UniProt Q16665). As to the kind of experiment: MST (microscale thermophoresis), labelled HIF-1α PAS-B [part 3 of 4].
For experiment [2] the target is unchanged. As to the kind of experiment: MST (microscale thermophoresis), labelled HIF-1α PAS-B [part 2 of 4].
Experiment [3] has the same target. As to the kind of experiment: MST (microscale thermophoresis), labelled HIF-1α PAS-B [part 1 of 4) B].
Experiment [4] has the same target. As to the kind of experiment: MST.
A further experiment deals with His-HIF-1α PAS-B domain (UniProt Q16665). As to the kind of experiment: competition ELISA: inhibition of FLAG-HIF-1β PAS-B binding to plate-bound His-HIF-1α PAS-B.
Experiment [5] concerns the target HIF-1α PAS-B domain (UniProt Q16665). As to the kind of experiment: MST (microscale thermophoresis), labelled HIF-1α PAS-B [part 3 of 14) B].
Experiment [6] shares this target. As to the kind of experiment: MST (microscale thermophoresis), labelled HIF-1α PAS-B [part 4 of 4].

Bounds are passed on as bounds.

HIF-1α PAS-B domain, sequence (Q16665 238-349 limits assumed): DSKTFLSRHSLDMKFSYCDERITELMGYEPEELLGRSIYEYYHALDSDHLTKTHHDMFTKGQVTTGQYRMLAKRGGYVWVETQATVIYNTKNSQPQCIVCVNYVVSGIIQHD
His-HIF-1α PAS-B domain, sequence (Q16665 238-349 limits assumed): as above

In the experiment with HIF-1α PAS-B domain [1], Cyclo-CLLF(CF3)-Aib-F(Br) (peptide) came in with a Kd of 1.92 µM. Turning to Cyclo-CLLF(CF3)-Prop-F(Br) (peptide), the Kd with HIF-1α PAS-B domain [2] is 1.16 µM. Regarding Cyclo-CL-Aib-F(CF3)IF(Br) (peptide), the EC50 (read off the curve) with HIF-1α PAS-B domain [3] amounted to 2 µM. In the experiment with HIF-1α PAS-B domain [1], Cyclo-CL-Prop-F(CF3)IF(Br) (peptide) yielded an EC50 (read off the curve) of 1 µM. The substance Cyclo-CL-NV-F(CF3)IF(Br) (peptide) registered an EC50 (read off the curve) with HIF-1α PAS-B domain [2] of 0.6 µM. As to “cyclo-CK-NL-F(CF3)IF(Br) (Cys lys n-leu phe(CF3) ile phe(4-Br)) (peptide)”, the dissociation constant (Kd) in the experiment with HIF-1α PAS-B domain [4] was 1.66 µM. For the same substance, the IC50 with His-HIF-1α PAS-B domain came out at 27.7 µM. Consider Cyclo-CLLY(Me)VY (peptide), for which the Kd with HIF-1α PAS-B domain [5] was over 200 µM. Turning to Cyclo-CLLF(CF3)-NL-F(Br) (peptide), in the experiment with HIF-1α PAS-B domain [6], the dissociation constant Kd was found to be 1.03 µM. For the substance Cyclo-CLLF(CF3)-NV-F(Br) (peptide), the equilibrium dissociation constant (Kd) with HIF-1α PAS-B domain [2] came to 22.4 µM.

Cyclo-CL-hL-F(CF3)IF(Br) (peptide) displayed a 50% effective concentration (EC50 (read off the curve)) with HIF-1α PAS-B domain [1] of 0.7 µM. Take “Cyclo-CLLF(CF3)-hL-F(Br) (Cys leu leu phe(CF3) h-leu phe(4-Br)) (peptide)”: in the experiment with HIF-1α PAS-B domain [6], the dissociation constant Kd amounted to 0.735 µM. For the substance “Cyclo-CL-NL-F(CF3)IF(Br) (Cys leu n-leu phe(CF3) ile phe(4-Br)) (peptide)”, the 50% effective concentration (EC50 (read off the curve)) with HIF-1α PAS-B domain [6] came to 0.5 µM.
